Measurements: IntAct's records for PubMed 10613896

B1: Arf-GAP domain and FG repeat-containing protein 1 (Homo sapiens), P52594 (parent)
chain: MAASAKRKQEEKHLKMLRDMTGLPHNRKCFDCDQRGPTYVNMTVGSFVCTSCSGSLRGLNPPHRVKSISMTTFTQQEIEFLQKHGNEVCKQIWLGLFDDRSSAIPDFRDPQKVKEFLQEKYEKKRWYVPPEQAKVVASVHASISGSSASSTSSTPEVKPLKSLLGDSAPTLHLNKGTPSQSPVVGRSQGQQQEKKQFDLLSDLGSDIFAAPAPQSTATANFANFAHFNSHAAQNSANADFANFDAFGQSSGSSNFGGFPTASHSPFQPQTTGGSAASVNANFAHFDNFPKSSSADFGTFNTSQSHQTASAVSKVSTNKAGLQTADKYAALANLDNIFSAGQGGDQGSGFGTTGKAPVGSVVSVPSQSSASSDKYAALAELDSVFSSAATSSNAYTSTSNASSNVFGTVPVVASAQTQPASSSVPAPFGATPSTNPFVAAAGPSVASSTNPFQTNARGATAATFGTASMSMPTGFGTPAPYSLPTSFSGSFQQPAFPAQAAFPQQTAFSQQPNGAGFAAFGQTKPVVTPFGQVAAAGVSSNPFMTGAPTGQFPTGSSSTNPFL
partner: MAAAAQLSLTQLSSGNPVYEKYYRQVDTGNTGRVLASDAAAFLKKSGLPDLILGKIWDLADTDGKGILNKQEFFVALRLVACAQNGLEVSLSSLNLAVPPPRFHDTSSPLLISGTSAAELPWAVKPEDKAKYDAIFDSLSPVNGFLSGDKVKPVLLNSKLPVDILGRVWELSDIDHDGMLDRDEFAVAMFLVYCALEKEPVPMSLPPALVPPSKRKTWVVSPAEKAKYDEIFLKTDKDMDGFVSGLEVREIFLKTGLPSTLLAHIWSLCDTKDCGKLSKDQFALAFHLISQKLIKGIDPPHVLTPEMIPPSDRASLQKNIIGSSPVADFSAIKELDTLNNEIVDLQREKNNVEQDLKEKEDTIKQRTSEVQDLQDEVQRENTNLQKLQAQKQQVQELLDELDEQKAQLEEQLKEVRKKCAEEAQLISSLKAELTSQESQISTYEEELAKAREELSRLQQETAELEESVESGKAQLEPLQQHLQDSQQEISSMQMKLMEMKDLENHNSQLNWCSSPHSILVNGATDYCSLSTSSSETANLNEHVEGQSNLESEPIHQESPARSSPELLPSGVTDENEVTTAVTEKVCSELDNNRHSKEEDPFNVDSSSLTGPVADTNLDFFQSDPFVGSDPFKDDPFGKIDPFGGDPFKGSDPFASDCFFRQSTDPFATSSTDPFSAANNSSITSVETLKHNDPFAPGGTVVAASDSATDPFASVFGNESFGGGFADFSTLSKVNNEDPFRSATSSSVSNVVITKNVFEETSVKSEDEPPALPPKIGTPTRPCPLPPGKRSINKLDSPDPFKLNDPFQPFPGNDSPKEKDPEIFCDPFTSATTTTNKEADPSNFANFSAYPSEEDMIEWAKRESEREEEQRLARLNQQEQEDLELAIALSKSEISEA

Variants of: B1
Details: with eps15_human EPS15, P42566

Row | effect of a mutation on the interaction | Variant
1 | disrupting interaction | F436V;F451V;F542V;F561V
